Where two headings read alike, the source gives them in different places. Non-standard residues stand in square brackets, D forms with d. Residues, ends and D or L forms follow the SMILES beside them. *: point of attachment. Sta = CC(C)C[C@H](N)[C@@H](O)CC(=O)O; Isovaleryl = CC(C)CC(=O)*
How the values were obtained:
[1] = molecular target: T1, purified S1P(187-983) (Cricetulus griseus, UniProt Q9Z2A8); assay type: biochemical, hamster; conditions: for inhibition of S1P at extremely high concentrations: extremely high concentrations of inhibitor; for Relative Activity (comparative cleavage of fluorogenic synthetic peptidyl substrates): cleavage by purified S1P-C(187-983), MCA-peptide 100 μM, pH 8.0, 37° C.
T1 construct: 1.5-5 μg of purified S1P(187-983); made in house; host or cells: SRD-12B cells (CHO-derived) stably transfected with pCMV-S1P(983)-Myc-His (TR-3117, 'S1P(983) cells'); The protein was secreted into serum-free medium and purified on Ni-NTA agarose
T1 sequence (Q9Z2A8 187-983): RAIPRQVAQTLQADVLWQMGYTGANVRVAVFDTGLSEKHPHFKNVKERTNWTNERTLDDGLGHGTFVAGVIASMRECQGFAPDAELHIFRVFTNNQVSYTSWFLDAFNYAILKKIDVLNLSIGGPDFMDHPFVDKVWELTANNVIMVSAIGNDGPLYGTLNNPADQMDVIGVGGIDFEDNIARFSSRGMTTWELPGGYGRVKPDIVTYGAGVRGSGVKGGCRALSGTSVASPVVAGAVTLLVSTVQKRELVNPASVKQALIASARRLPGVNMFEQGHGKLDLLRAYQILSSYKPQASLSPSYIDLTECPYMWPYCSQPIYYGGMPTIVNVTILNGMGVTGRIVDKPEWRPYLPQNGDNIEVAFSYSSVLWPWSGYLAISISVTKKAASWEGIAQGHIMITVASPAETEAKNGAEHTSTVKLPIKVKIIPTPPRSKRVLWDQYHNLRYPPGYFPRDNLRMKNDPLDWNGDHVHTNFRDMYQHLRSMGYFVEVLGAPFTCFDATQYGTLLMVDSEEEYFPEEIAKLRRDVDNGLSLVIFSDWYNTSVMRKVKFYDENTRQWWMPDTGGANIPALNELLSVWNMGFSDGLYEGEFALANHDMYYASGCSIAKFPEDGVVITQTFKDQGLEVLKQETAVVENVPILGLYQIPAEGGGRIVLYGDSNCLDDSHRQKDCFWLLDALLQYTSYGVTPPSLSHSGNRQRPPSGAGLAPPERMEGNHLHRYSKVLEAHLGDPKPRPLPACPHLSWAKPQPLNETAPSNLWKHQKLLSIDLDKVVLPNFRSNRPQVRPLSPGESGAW
Protocol: Stock cultures of S1P(983) cells were grown in 850-cm^2 roller bottles in medium B supplemented with 5% (v/v) newborn calf lipoprotein-deficient serum and 500 μg/mL G418. On day 0, 10 roller bottles of S1P(983) cells were seeded at a density of ˜4×10^7 cells/roller bottles. On day 2, the medium was replaced with 100 mL of serum-free medium CHO-S-SFMII. The medium from each roller bottle was collected daily from day 3 to day 7. The collected medium was pooled, filtered through 0.45-μm cellulose acetate low-protein binding membrane filter units (Corning Costar) and stored at 4° C. for 0 to 4 days. On day 7, the filtered medium was adjusted to pH 8.0 by addition of tris-HCl at a final concentration of 25 mM, and then loaded onto four parallel 5-mL Ni-NTA agarose columns (Qiagen, Inc., Chatsworth, Calif.) equilibrated with 20 mL of buffer B (25 mM tris-HCl at pH 8.0, 10% (v/v) glycerol, 1 mM CaCl2). The chromatography was performed at 4° C. via gravity at ˜100 mL/hr. The column was washed with 40 mL of buffer B supplemented with 1M NaCl followed by 20 mL of buffer B without NaCl. […] The eluate was concentrated with a Centriprep 30 filter followed by a Centricon 30 filter (Amicon, Inc.).
S1P activity was measured fluorometrically with MCA-conjugated peptidyl substrates. Each reaction was carried out in 0.2 mL of assay buffer (25 mM tris, 25 mM Mes, 25 mM acetic acid, and 1 mM CaCl2 adjusted to pH 8.0 with concentrated NaOH). Reactions contained MCA-peptide (final concentration 100 μM, added in 2 μl DMSO) and 1.5-5 μg of purified S1P(187-983). After incubation for 0.5-5 h at 37° C., each reaction was terminated by addition of 1 mL of ice-cold 5 mM sodium EDTA. The liberated 7-amino-4-methylcoumarin (AMC) was measured with a Perkin-Elmer LS-30 luminescence spectrometer (360 nm excitation, 460 nm emission). A standard curve of fluorescence intensity was generated with different concentrations of AMC (Promega).

[2] = tested on: T2, Ac-Arg-Ser-Leu-Lys-MCA
T2 sequence: XSLX

[3] = tested on: T3, Ac-Arg-Ser-Val-Leu-MCA
T3 sequence: XSVX

[4] = tested on: T4, Ac-Ser-Gly-Arg-Ser-Val-Leu-MCA
T4 sequence: XGRSVX

[5] = tested on: T5, Ac-Ser-Gly-Ser-Gly-Arg-Ser-Val-Leu-MCA
T5 sequence: XGSGRSVX

[6] = tested on: T6, Ac-Val-Phe-Ala-Ser-Leu-Lys-MCA
T6 sequence: XFASLX

[7] = tested on: T7, Ac-Val-Phe-Arg-Ser-Arg-Arg-MCA
T7 sequence: XFRSRX

[8] = tested on: T8, Ac-Val-Phe-Arg-Ser-Leu-Lys-MCA
T8 sequence: XFRSLX

[9] = tested on: T9, Boc-Arg-Val-Arg-Arg-MCA
T9 sequence: XVRX

[10] = incubated with substrate Ac-VFRSLK-MCA

## O[C@H](CS)[C@H](O)CS (racemic) [dithiothreitol]
[1]; [10]
  inhibition of S1P at extremely high concentrations: also inhibited S1P

## c1cnc2c(c1)ccc1cccnc12 [1,10-phenanthroline]
[1]; [10]
  inhibition of S1P at extremely high concentrations: also inhibited S1P

## N=C(N)c1ccc(CS(=O)(=O)F)cc1 [APMSF, (4-amindinophenyl)-methanesulfonyl fluoride]
[1]; [10]
  inhibition of S1P: not significantly inhibited

## O=C(O)CN(CCN(CC(=O)O)CC(=O)O)CC(=O)O [EDTA]
[1]
  inhibition of S1P: partially inhibited

## O=C(O)CN(CCOCCOCCN(CC(=O)O)CC(=O)O)CC(=O)O [EGTA]
[1]; [10]
  inhibition of S1P at extremely high concentrations: also inhibited S1P

## O=S(=O)(F)Cc1ccccc1 [PMSF, phenylmethylsulfonyl fluoride]
[1]; [10]
  inhibition of S1P: not significantly inhibited

## Cl.NCCc1ccc(S(=O)(=O)F)cc1 [Pefabloc®]
[1]; incubated with substrate Ac-VFRSLK-MCA, high concentrations of inhibitor
  inhibition of S1P at high concentrations: did inhibit S1P

## CC(=O)N[C@@H](CC(C)C)C(=O)N[C@@H](CC(C)C)C(=O)N[C@H](C=O)CCCNC(=N)N [leupeptin]
[1]; [10]
  inhibition of S1P: resistant

## CC(C)CC(=O)N[C@H](C(=O)N[C@H](C(=O)N[C@@H](CC(C)C)[C@@H](O)CC(=O)N[C@@H](C)C(=O)N[C@@H](CC(C)C)[C@@H](O)CC(=O)O)C(C)C)C(C)C [pepstatin] (Isovaleryl-VV[Sta]A[Sta]-OH)
[1]; [10]
  inhibition of S1P: resistant

## Ac-Arg-Ser-Leu-Lys-MCA [Ac-RSLK-MCA, fluorogenic MCA-conjugated peptidyl substrate]
[1]
  Relative Activity (comparative cleavage of fluorogenic synthetic peptidyl substrates): 0.47

## Ac-Arg-Ser-Val-Leu-MCA [Ac-RSVL-MCA, fluorogenic MCA-conjugated peptidyl substrate]
[1]
  Relative Activity (comparative cleavage of fluorogenic synthetic peptidyl substrates): <0.1

## Ac-Ser-Gly-Arg-Ser-Val-Leu-MCA [Ac-SGRSVL-MCA, fluorogenic MCA-conjugated peptidyl substrate]
[1]
  Relative Activity (comparative cleavage of fluorogenic synthetic peptidyl substrates): <0.1

## Ac-Ser-Gly-Ser-Gly-Arg-Ser-Val-Leu-MCA [Ac-SGSGRSVL-MCA, fluorogenic MCA-conjugated peptidyl substrate]
[1]
  Relative Activity (comparative cleavage of fluorogenic synthetic peptidyl substrates): <0.1

## Ac-Val-Phe-Ala-Ser-Leu-Lys-MCA [Ac-VFASLK-MCA, fluorogenic MCA-conjugated peptidyl substrate]
[1]
  Relative Activity (comparative cleavage of fluorogenic synthetic peptidyl substrates): <0.1

## Ac-Val-Phe-Arg-Ser-Arg-Arg-MCA [Ac-VFRSRR-MCA, fluorogenic MCA-conjugated peptidyl substrate]
[1]
  Relative Activity (comparative cleavage of fluorogenic synthetic peptidyl substrates): <0.1

## Ac-Val-Phe-Arg-Ser-Leu-Lys-MCA [Ac-VFRSLK-MCA, fluorogenic MCA-conjugated peptidyl substrate]
[1]
  Relative Activity (comparative cleavage of fluorogenic synthetic peptidyl substrates): 1.0

## Boc-Arg-Val-Arg-Arg-MCA [Boc-RVRR-MCA, fluorogenic MCA-conjugated peptidyl substrate]
[1]
  Relative Activity (comparative cleavage of fluorogenic synthetic peptidyl substrates): <0.1

## N-acetyl-leucinal-leucinal-norleucinal [ALLN]
[1]; [10]
  inhibition of S1P: resistant

## aprotinin
[1]; [10]
  inhibition of S1P: resistant

## purified S1P(187-983), secreted form from S1P(983)-Myc-His cells (hamster Site-1 protease)
[2]
  Relative Activity (cleavage of fluorogenic MCA substrate, release of AMC) (relative activity): 0.47
[3]
  Relative Activity (cleavage of fluorogenic MCA substrate, release of AMC) (relative activity): < 0.1
[4]
  Relative Activity (cleavage of fluorogenic MCA substrate, release of AMC) (relative activity): < 0.1
[5]
  Relative Activity (cleavage of fluorogenic MCA substrate, release of AMC) (relative activity): < 0.1
[6]
  Relative Activity (cleavage of fluorogenic MCA substrate, release of AMC) (relative activity): < 0.1
[7]
  Relative Activity (cleavage of fluorogenic MCA substrate, release of AMC) (relative activity): < 0.1
[8]
  Relative Activity (cleavage of fluorogenic MCA substrate, release of AMC) (relative activity): 1
[9]
  Relative Activity (cleavage of fluorogenic MCA substrate, release of AMC) (relative activity): < 0.1

Source: patent US6649593B1, “Modulators of SREBP processing” (priority 1999, dated 2003)
